From patent publication US20170306005A1 (NASCIENT, published 2017)
Substitutions are numbered along the chain they refer to. Names may count otherwise. Blank lines part the entries; values can stand above or below the binder they belong to.

Assays:
Human FGB-rCd4 = biological target: T1, Human FGB-rCd4; test: ELISA (DELFIA), antigen coated on the well, purified Fab at 50 nM, detected with anti-kappa or anti-lambda mAb and Europium-conjugated anti-mouse mAb
T1 construct: Not the same construct as m1, which has the FBG at the C terminus; also called human TNC FBG-rCD4; human tenascin-C FBG-rCd4-His (FBG at the N terminus of the rat Cd4 tag); not shown: rat Cd4 (domains 3 and 4) tag, the C-terminal His6 tag and the vector-derived junction residues of pBIOCAM4
T1 chain: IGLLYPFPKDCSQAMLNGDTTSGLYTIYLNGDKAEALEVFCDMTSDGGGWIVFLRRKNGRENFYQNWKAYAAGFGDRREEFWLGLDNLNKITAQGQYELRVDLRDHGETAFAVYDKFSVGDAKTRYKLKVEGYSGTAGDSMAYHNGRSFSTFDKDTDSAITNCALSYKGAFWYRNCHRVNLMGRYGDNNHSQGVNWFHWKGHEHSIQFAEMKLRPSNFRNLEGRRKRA

human Fc-His-FBG = biological target: T2, human Fc-His-FBG (human, UniProt P24821 1974-2201); test: cell-based or functional assay
T2 sequence: T1 chain

[1] = biological target: T3, mouse tenascin-C rCd4-His-FBG (rat; mouse, UniProt P05540 207-392, limits assumed); test: SPR, parental antibody
T3 construct: domain: domains 3 and 4; C-terminal FBG fusion; biotinylated in the ELISA screen; also called Mu TNC; mouse TNC rCd4-His-FBG; not shown: 6His tag
T3 sequence (chain (part 1 of 2)): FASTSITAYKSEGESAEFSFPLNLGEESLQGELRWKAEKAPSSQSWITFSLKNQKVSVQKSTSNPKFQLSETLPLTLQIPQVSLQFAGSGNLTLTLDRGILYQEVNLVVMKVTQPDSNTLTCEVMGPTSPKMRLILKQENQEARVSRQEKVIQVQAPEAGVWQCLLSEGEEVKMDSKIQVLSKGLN
T3 sequence (chain (part 2 of 2)): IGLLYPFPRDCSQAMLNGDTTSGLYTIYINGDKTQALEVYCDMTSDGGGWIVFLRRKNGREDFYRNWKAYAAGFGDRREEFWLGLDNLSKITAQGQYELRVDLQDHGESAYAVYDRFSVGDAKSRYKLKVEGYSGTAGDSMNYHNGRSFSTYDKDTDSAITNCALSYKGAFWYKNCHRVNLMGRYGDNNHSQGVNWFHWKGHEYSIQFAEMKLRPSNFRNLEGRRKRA

[2] = biological target: T4, human tenascin-C rCd4-His-FBG (rat; human, UniProt P05540 207-392, limits assumed); test: SPR, captured Fab, 25 C
T4 construct: domain: domains 3 and 4; C-terminal FBG fusion; biotinylated in the ELISA and HTRF screens; also called Hu TNC; human TNC rCd4-His-FBG; not shown: 6His tag
T4 sequence (chain (part 1 of 2)): T3 sequence (chain (part 1 of 2))
T4 sequence (chain (part 2 of 2)): T1 chain
Description: (§1) Experiments were performed using a BIAcore T100 instrument with CM5 sensor chip according to the protocol provided with the Human Fab Capture Kit (GE, 28-9583-25). […] After reference signal subtraction, the data was fitted to a global 1:1 fit using the T100 BIAevaluation software (FIGS. 6 a-d).

[3] = biological target: T3, mouse tenascin-C rCd4-His-FBG; test: SPR, captured Fab, 25 C
Description: as §1

[4] = biological target: T5, human tenascin-R rCd4-His-FBG (rat; human, UniProt P05540 207-392, limits assumed); test: SPR steady state, captured Fab, 25 C
T5 construct: domain: domains 3 and 4; C-terminal FBG fusion; also called Hu TNR; human TNR rCd4-His-FBG; not shown: 6His tag
T5 sequence (chain (part 1 of 2)): T3 sequence (chain (part 1 of 2))
T5 sequence (chain (part 2 of 2)): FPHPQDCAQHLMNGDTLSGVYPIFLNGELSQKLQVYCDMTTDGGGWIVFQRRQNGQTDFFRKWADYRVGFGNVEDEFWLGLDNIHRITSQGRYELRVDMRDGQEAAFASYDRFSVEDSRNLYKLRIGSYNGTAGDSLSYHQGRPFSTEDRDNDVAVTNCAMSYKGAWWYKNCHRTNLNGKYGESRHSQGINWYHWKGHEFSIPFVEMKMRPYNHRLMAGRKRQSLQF
Description: as §1

[5] = biological target: T4, human tenascin-C rCd4-His-FBG; test: SPR off-rate screen, captured IgG4 supernatant, 25 C
Procedure, shortened: (§2)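 SPR at 25 °C: IgG4 (S241P) from culture supernatant, diluted 1:2 in 2×PBS-T, captured on anti-human Fc surface; antigen injected at a fixed 15 nM (human and mouse TNC rCd4-His-FBG) or 100 nM (human TNR rCd4-His-FBG), 30 μl/min. Association 1 min, dissociation 5 min; off-rates from reference-subtracted 1:1 fits.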

[6] = biological target: T3, mouse tenascin-C rCd4-His-FBG; test: as above
Procedure, shortened: as §2

[7] = biological target: T4, human tenascin-C rCd4-His-FBG; test: SPR, captured purified IgG4, 37 C
Description: (§3) Detailed kinetic parameters were evaluated for the 9 prioritised IgG4 antibodies. Binding characteristics were determined for interaction with human, rat and dog TNC rCD4-His-FBG, and human TNR rCD4-His-FBG. Kinetic assays followed essentially the same protocols as for the off-rate determinations described above, with some modifications as follows. […] Purified anti-FBG IgG4 was diluted to a concentration of 3.5 nM in PBS, pH 7.4, 0.05% Tween-20 and injected into FC2 at a flow rate of 10 μl/min, 60 s contact time. […] Antigens were prepared by doubling dilution in PBS, pH 7.4, 0.05% Tween-20 (highest concentration 100 nM except mouse rCD4-His-FBG which was 7 nM). Assays were performed at 37° C. (30 μl/min, 120 s contact time; mouse rCD4-His-FBGFBG 10 μl/min, 60 s contact time), with both the flow cell and injection chamber equilibrated to this temperature. As before, kinetic parameters were determined by reference cell subtraction and fitting the sensogram experimental data assuming a 1:1 interaction using BIAevaluation software (GE, BR-1005-97).

[8] = biological target: T3, mouse tenascin-C rCd4-His-FBG; test: SPR, captured purified IgG4, 37 C
Description: as §3

[9] = biological target: T6, dog tenascin-C rCD4-His-FBG (rat; dog, UniProt P05540 207-392, limits assumed); test: SPR, captured purified IgG4, 37 C
T6 construct: domain: domains 3 and 4; C-terminal FBG fusion; also called Dog TNC; not shown: 6His tag
T6 sequence (chain (part 1 of 2)): T3 sequence (chain (part 1 of 2))
T6 sequence (chain (part 2 of 2)): T3 sequence (chain (part 2 of 2)) with I29L, T34A, S89H, Q104R, E108K, S109T, S124T, N142A, Y152F
Description: as §3

[10] = biological target: T7, rat tenascin-C rCd4-His-FBG (rat, UniProt P05540 207-392, limits assumed); test: SPR, captured purified IgG4, 37 C
T7 construct: domain: domains 3 and 4; C-terminal FBG fusion; also called Rat TNC; rat TNC rCD4-His-FBG; not shown: 6His tag
T7 sequence (chain (part 1 of 2)): T3 sequence (chain (part 1 of 2))
T7 sequence (chain (part 2 of 2)): T3 sequence (chain (part 2 of 2)) with A72T
Description: as §3

[11] = biological target: T5, human tenascin-R rCd4-His-FBG; test: SPR, captured Fab, 25 C
Description: as §1

[12] = biological target: T5, human tenascin-R rCd4-His-FBG; test: SPR (BIAcore), Fab captured (23 nM) on anti-CL kappa / anti-CL lambda CM5 sensor chip, rCd4-FBG injected up to 2 µM; steady-state plot of response against concentration [Con't]
Description: as §1

[13] = biological target: T3, mouse tenascin-C rCd4-His-FBG; test: SPR steady state, captured Fab, 25 C
Description: as §1

[14] = biological target: T5, human tenascin-R rCd4-His-FBG; test: SPR off-rate screen, captured IgG4 supernatant, 25 C
Procedure, shortened: as §2

[15] = biological target: T5, human tenascin-R rCd4-His-FBG; test: SPR, captured purified IgG4, 37 C
Description: as §3

- binding result (Human FGB-rCd4): binds
- IC50, inhibition of Fc-His-HuFBG-evoked IL-8 release, THP1-Blue cells (human Fc-His-FBG): 13.8 nM
- IC50, inhibition of Fc-His-HuFBG-evoked alkaline phosphatase, THP1-Blue cells (human Fc-His-FBG): 8.4 nM
- fold difference in affinity between human and mouse rCd4-his-FBG [1]: 2.6 fold
- Kd [2]: 27.4 nM
- koff [2]: 0.00346 s⁻¹
- kon [2]: 126000 M⁻¹ s⁻¹
- Kd [3]: 70.6 nM
- koff [3]: 0.00642 s⁻¹
- kon [3]: 91000 M⁻¹ s⁻¹
- Kd [4]: 1810 nM
B1: Fab F3 (Fab, V domains shown)
VH: EVQLLESGGGLVQPGGSLRLSCAASGFTFSSYGMHWVRQAPGKGLEWVAVISYDGSNKYYADSVKGRFTISRGNSKNTLYLQMNSLKAEDTAVYYCAREGYDQLFSAESNAFDIWGQGTLVTVSS
VL: NFMLAQPHSVSESPGKTVTISCTRSSGSIASYFVQWFQQRPGSAPTAVIYEDNQRPSGVPDRFSGSIDSSSNSASLTISGLKTEDEADYYCQSYDSSNWVFGGGTKVTVLG
notes: monomeric Fab

- koff [5]: 1.5e-06 s⁻¹
- koff [6]: 1.7e-06 s⁻¹
- Kd [7]: 0.26 nM
- koff [7]: 0.00188 s⁻¹
- kon [7]: 7.27e+06 M⁻¹ s⁻¹
- Kd [8]: 0.96 nM
- koff [8]: 0.000706 s⁻¹
- kon [8]: 733000 M⁻¹ s⁻¹
- Kd [9]: 2.85 nM
- koff [9]: 0.0187 s⁻¹
- kon [9]: 6.55e+06 M⁻¹ s⁻¹
- Kd [10]: 2.2 nM
- koff [10]: 0.00684 s⁻¹
- kon [10]: 3.11e+06 M⁻¹ s⁻¹
B2: 165_13_B1 human IgG4 (antibody, V domains shown)
VH: QVQLVESGGGLVQPGRSLRLSCAASGFTFDDYAMHWVRQAPGKGLEWVSGISGSGGSTYYADSVKGRFTISRDNAKNSLYLQMNSLRAEDTALYYCAKVMSSMEDAFDIWGQGTMVTVSS
VL: DIQMTQSPASLPTPVGDRVTITCRASQYIQGFLNWYQQKPGKAPKLLIYDASNLETGVPSRFSGSGSGTDFTLTISSLQPEDFATYYCQQSYSTPQTFGQGTKVDIKR
notes: human IgG4 with hinge S241P

- binding result (Human FGB-rCd4): binds
- IC50, inhibition of Fc-His-HuFBG-evoked IL-8 release, THP1-Blue cells (human Fc-His-FBG): 14.9 nM
- IC50, inhibition of Fc-His-HuFBG-evoked alkaline phosphatase, THP1-Blue cells (human Fc-His-FBG): 7.2 nM
- Kd [2]: 8.49 nM
- koff [2]: 0.0131 s⁻¹
- kon [2]: 1.54e+06 M⁻¹ s⁻¹
- Kd [3]: 48.4 nM
- koff [3]: 0.0716 s⁻¹
- kon [3]: 1.48e+06 M⁻¹ s⁻¹
- Kd [11]: 1030 nM
- koff [11]: 0.57 s⁻¹
- kon [11]: 555000 M⁻¹ s⁻¹
- Kd [12]: 1110 nM
- Kd [13]: 41.2 nM
- Kd [4]: 913 nM
B3: Fab D8 (Fab, V domains shown)
VH: EVQLVQSGAEVKKPGASVKVSCKASGYTFTSYGISWVRQAPGQGLEWMGWISAYNGNTNYAQKLQGRVTMTTDTSTSTAYMELRSLRSDDTAVYYCARNQDSSSDYWGQGTLVTVSS
VL: B2 VL with P14S, P95L
notes: monomeric Fab

- koff [5]: 6.7e-06 s⁻¹
- koff [6]: 5.9e-06 s⁻¹
- koff [14]: 0.011 s⁻¹
- Kd [7]: 0.21 nM
- koff [7]: 0.0005 s⁻¹
- kon [7]: 2.35e+06 M⁻¹ s⁻¹
- Kd [8]: 1.23 nM
- koff [8]: 0.000146 s⁻¹
- kon [8]: 118000 M⁻¹ s⁻¹
- Kd [9]: 0.094 nM
- koff [9]: 0.00018 s⁻¹
- kon [9]: 1.9e+06 M⁻¹ s⁻¹
- Kd [10]: 1.49 nM
- koff [10]: 0.00189 s⁻¹
- kon [10]: 1.27e+06 M⁻¹ s⁻¹
- Kd [15]: 15.2 nM
- fold lower affinity than for human TNC FBG [15]: > 70 fold
- koff [15]: 0.00399 s⁻¹
- kon [15]: 260000 M⁻¹ s⁻¹
B4: 160_01_A4 human IgG4 (antibody, V domains shown)
VH: EVRLVQSGAEVKKPGASVKVSCKVSGYTLTELSMHWVRQAPGKGLEWMGGFDPEDGETIYAQKFQGRVTMTEDTSTDTAYMELSSLRSEDTAVYYCATAQKETLGNAIWGQGTLVTVSS
VL: B2 VL with P14S, K45R, D50A, N53T, E55Q, T56D, S67Y, Q96W, D105E
notes: human IgG4 with hinge S241P; also called Antibody 160 01 A4 (derived from 2A5)
